Measured values reported in article PMC8575264.
Where two headings read alike, the source gives them in different places.

Assays:
Assay in all cases: fluorescence anisotropy
[1] = molecular target: T1, holo-CPSF30-5F (UniProt O19137 35-169)
[2] = molecular target: Zn(II)-CPSF30-F2F3 (UniProt O19137)
[3] = molecular target: T2, holo-CPSF30-FL (Bos taurus, UniProt O19137 1-243)
[4] = molecular target: T2, holo-CPSF30-FL; remark: listed apart in the source
[5] = molecular target: T3, Zn(II)-CPSF30-ZK (UniProt O19137)
T3 chain: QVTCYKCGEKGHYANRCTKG

[6] = molecular target: T2, holo-CPSF30-FL; remark: listed apart in the source
[7] = molecular target: T1, holo-CPSF30-5F; remark: listed apart in the source
[8] = molecular target: T2, holo-CPSF30-FL; remark: listed apart in the source

For UCUCACUUUAAUAAUAAAAAUCAUGCUUAU (ssRNA) [α-syn30], the “apparent K (half saturation)” value [1] was 178 nM, the binding result [2] was “no binding” and the “apparent K (half saturation)” value [3] was 110 nM.

For CACUUUAAUAAUAAAAAUCAUGCU (ssRNA) [α-syn24], the “apparent K (half saturation)” value [4] was 110 nM and the binding result [2] was “no binding”.

AAUAAUAAU (ssRNA) [AAU9]: no binding [2].

AAUAAUAAUAAU (ssRNA) [AAU12]: no binding [2].

AAUAAUAAUAAUAAUAAUAAUAAU (ssRNA) [AAU24]: no binding [2].

UUUAUUUAUUU (ssRNA) [ARE11]: no binding [5]; no binding [2].

For CACUUUAAUCCUCCAAAUCAUGCU (ssRNA) [ΔA1,2,4,5], the “apparent K (half saturation)” value [6] was 275 nM and the binding result [7] was “no binding”.

CACUUUAAUCCCCCCAAUCAUGCU (ssRNA) [PolyC24]: no binding [8].

UUUUUUUUUUUUUUUUUUUUUUUU (ssRNA) [PolyU24]: no binding [5]; no binding [7].
